In patent publication US20150344570A1 (published 2015):

Target: T1, FcγRIIa R (extracellular domain, His tag at the C terminus) (human, UniProt P12318 34-217)
T1 construct: extracellular domain; Soluble analyte in Biacore; also called FcgRIIa R type; 2aR
T1 sequence (looked up): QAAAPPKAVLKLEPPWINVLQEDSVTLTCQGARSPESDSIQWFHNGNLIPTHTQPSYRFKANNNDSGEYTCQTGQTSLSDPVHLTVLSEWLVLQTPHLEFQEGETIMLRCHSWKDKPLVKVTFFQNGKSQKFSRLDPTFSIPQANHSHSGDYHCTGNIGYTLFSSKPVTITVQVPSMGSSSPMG
Experiment: SPR (Biacore), relative binding, control GpH7-A5/GpH7-B3/GpL16-k0 = 100
Protocol: Analysis of interaction between objective antibody and the FcγR was carried out using Biacore T100 (GE Healthcare). HBS-EP+ (GE Healthcare) was used as the running buffer, and the measurement temperature was set to 25° C. Chips produced by immobilizing the antigen peptide by the amine coupling method to a Series S Sencor Chip CM5 (GE Healthcare), or alternatively, chips produced by allowing preliminarily biotinylated antigen peptides to interact with and immobilize onto a Series S Sensor Chip SA (certified) (GE Healthcare) were used. Antibodies of interest were captured onto an antigen peptide-immobilized chip, and allowed to interact to each FcγR diluted with running buffer. To regenerate and repeatedly use the chip, the antibodies captured on the chip were washed off by reacting 10 mM glycine-HCl, pH 1.5.

B1: GpH7-A5/GpH7-B3 variant S239_09D/GpL16-k0 (antibody, human IgG1, kappa)
heavy 1: not shown
heavy 2: not shown
light: DIVMTQSPLSLPVTPGEPASISCQASESLVHSNRNTYLHWYLQKPGQSPQLLIYKVSNRFSGVPDRFSGSGSGTDFTLKISRVEAEDVGVYYCSQNTHVPPTFGQGTKVEIERTVAAPSVFIFPPSDEQLKSGTASVVCLLNNFYPREAKVQWKVDNALQSGNSQESVTEQDSKDSTYSLSSTLTLSKADYEKHKVYACEVTHQGLSSPVTKSFNRGEC
notes: heterodimerized; also called He Ab
Q: Which He/Con_2aR does the source give for B1 here?
A: 137 % of control

B2: GpH7-A5/GpH7-B3 variant T335_04F/GpL16-k0 (antibody, human IgG1, kappa)
heavy 1: not shown
heavy 2: not shown
light: DIVMTQSPLSLPVTPGEPASISCQASESLVHSNRNTYLHWYLQKPGQSPQLLIYKVSNRFSGVPDRFSGSGSGTDFTLKISRVEAEDVGVYYCSQNTHVPPTFGQGTKVEIERTVAAPSVFIFPPSDEQLKSGTASVVCLLNNFYPREAKVQWKVDNALQSGNSQESVTEQDSKDSTYSLSSTLTLSKADYEKHKVYACEVTHQGLSSPVTKSFNRGEC
notes: as for B1
Q: B2 was tested. Which He/Con_2aR did it give?
A: 108 % of control

B3: GpH7-A5/GpH7-B3 variant S267_02A/GpL16-k0 (antibody, human IgG1, kappa)
heavy 1: not shown
heavy 2: not shown
light: DIVMTQSPLSLPVTPGEPASISCQASESLVHSNRNTYLHWYLQKPGQSPQLLIYKVSNRFSGVPDRFSGSGSGTDFTLKISRVEAEDVGVYYCSQNTHVPPTFGQGTKVEIERTVAAPSVFIFPPSDEQLKSGTASVVCLLNNFYPREAKVQWKVDNALQSGNSQESVTEQDSKDSTYSLSSTLTLSKADYEKHKVYACEVTHQGLSSPVTKSFNRGEC
notes: as for B1
Q: B3 was tested. Which He/Con_2aR did it give?
A: 155 % of control

B4: GpH7-A5/GpH7-B3 variant S267_01G/GpL16-k0 (antibody, human IgG1, kappa)
heavy 1: not shown
heavy 2: not shown
light: DIVMTQSPLSLPVTPGEPASISCQASESLVHSNRNTYLHWYLQKPGQSPQLLIYKVSNRFSGVPDRFSGSGSGTDFTLKISRVEAEDVGVYYCSQNTHVPPTFGQGTKVEIERTVAAPSVFIFPPSDEQLKSGTASVVCLLNNFYPREAKVQWKVDNALQSGNSQESVTEQDSKDSTYSLSSTLTLSKADYEKHKVYACEVTHQGLSSPVTKSFNRGEC
notes: as for B1
Q: How did the He/Con_2aR turn out when B4 was run?
A: 113 % of control

B5: GpH7-A5/GpH7-B3 variant S267_07I/GpL16-k0 (antibody, human IgG1, kappa)
heavy 1: not shown
heavy 2: not shown
light: DIVMTQSPLSLPVTPGEPASISCQASESLVHSNRNTYLHWYLQKPGQSPQLLIYKVSNRFSGVPDRFSGSGSGTDFTLKISRVEAEDVGVYYCSQNTHVPPTFGQGTKVEIERTVAAPSVFIFPPSDEQLKSGTASVVCLLNNFYPREAKVQWKVDNALQSGNSQESVTEQDSKDSTYSLSSTLTLSKADYEKHKVYACEVTHQGLSSPVTKSFNRGEC
notes: as for B1
Q: B5 was tested. Which He/Con_2aR did it give?
A: 111 % of control

B6: GpH7-A5/GpH7-B3 variant T335_08L/GpL16-k0 (antibody, human IgG1, kappa)
heavy 1: not shown
heavy 2: not shown
light: DIVMTQSPLSLPVTPGEPASISCQASESLVHSNRNTYLHWYLQKPGQSPQLLIYKVSNRFSGVPDRFSGSGSGTDFTLKISRVEAEDVGVYYCSQNTHVPPTFGQGTKVEIERTVAAPSVFIFPPSDEQLKSGTASVVCLLNNFYPREAKVQWKVDNALQSGNSQESVTEQDSKDSTYSLSSTLTLSKADYEKHKVYACEVTHQGLSSPVTKSFNRGEC
notes: as for B1
Q: B6 was tested. Which He/Con_2aR did it give?
A: 108 % of control

B7: GpH7-A5/GpH7-B3 variant S337_14T/GpL16-k0 (antibody, human IgG1, kappa)
heavy 1: not shown
heavy 2: not shown
light: DIVMTQSPLSLPVTPGEPASISCQASESLVHSNRNTYLHWYLQKPGQSPQLLIYKVSNRFSGVPDRFSGSGSGTDFTLKISRVEAEDVGVYYCSQNTHVPPTFGQGTKVEIERTVAAPSVFIFPPSDEQLKSGTASVVCLLNNFYPREAKVQWKVDNALQSGNSQESVTEQDSKDSTYSLSSTLTLSKADYEKHKVYACEVTHQGLSSPVTKSFNRGEC
notes: as for B1
Q: For B7, which He/Con_2aR is on record?
A: 110 % of control

B8: GpH7-A5/GpH7-B3 variant T335_06M/GpL16-k0 (antibody, human IgG1, kappa)
heavy 1: not shown
heavy 2: not shown
light: DIVMTQSPLSLPVTPGEPASISCQASESLVHSNRNTYLHWYLQKPGQSPQLLIYKVSNRFSGVPDRFSGSGSGTDFTLKISRVEAEDVGVYYCSQNTHVPPTFGQGTKVEIERTVAAPSVFIFPPSDEQLKSGTASVVCLLNNFYPREAKVQWKVDNALQSGNSQESVTEQDSKDSTYSLSSTLTLSKADYEKHKVYACEVTHQGLSSPVTKSFNRGEC
notes: as for B1
Q: Which He/Con_2aR does the source give for B8 here?
A: 105 % of control

B9: GpH7-A5/GpH7-B3 variant T335_09D/GpL16-k0 (antibody, human IgG1, kappa)
heavy 1: not shown
heavy 2: not shown
light: DIVMTQSPLSLPVTPGEPASISCQASESLVHSNRNTYLHWYLQKPGQSPQLLIYKVSNRFSGVPDRFSGSGSGTDFTLKISRVEAEDVGVYYCSQNTHVPPTFGQGTKVEIERTVAAPSVFIFPPSDEQLKSGTASVVCLLNNFYPREAKVQWKVDNALQSGNSQESVTEQDSKDSTYSLSSTLTLSKADYEKHKVYACEVTHQGLSSPVTKSFNRGEC
notes: as for B1
Q: For B9, which He/Con_2aR is on record?
A: 110 % of control
